Results as given in the supplement of paper PMC9170038.

System: MS2 coat protein
Assay: apparent KD of MS2 coat protein; designed switch direction (-1 OFF switch, 1 ON switch): 1; higher = weaker reporter binding
Outline: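 Designed RNA switches with common flanks were transcribed on Illumina chips by stalled E. coli RNA polymerase and titrated with SNAP-549-labelled MS2 coat protein, from 0.7 or 1.5 nM doubling to 3 µM, in Tris-HCl pH 7.5 buffer with KCl, MgCl2, BSA, DTT, tRNA and Tween-20. Steps lasted 0.8–1.5 h (lowest) to 10–20 min (highest). Titrations ran without input, with 200 uM small-molecule ligand, or with an oligonucleotide input. Normalised cluster fluorescence was curve-fitted, and apparent KD is the per-design median over clusters.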

[1] = input ligand: microRNA oligo, concentration not stated
[2] = Eterna round: R95, input ligand: FMN 200 uM
[3] = Eterna round: R95, input ligand: microRNA oligo, concentration not stated
[4] = Eterna round: R95, input ligand: none

| Sequence | apparent KD of MS2 coat protein (input ligand: FMN 200 uM) | apparent KD of MS2 coat protein [1] | apparent KD of MS2 coat protein (input ligand: none) | apparent KD of MS2 coat protein [2] | apparent KD of MS2 coat protein [3] | apparent KD of MS2 coat protein [4] |
| --- | --- | --- | --- | --- | --- | --- |
| GCGGAACGGUGUGACAUGAGGAUCACCCAUGUAACCUCAUGUAAGGAUAUCGGGAAGAAGAAAACCGAGAAGGUACGGUGACGC [AK SSNG3-V2-29] (Eterna round: R96, puzzle: Same State NG 3) | 399 nM | 152 nM | 706 nM | – | – | – |
| AGAUCAUGACGAGGAUAUGGAACAUGAGGAUCACCCAUGUAUGUUCCAUAACGCGAAUAAAGAAUCCAGAAGGCGUCGUGGUCA [Mat - Same State NG 2 - JL mod - D30] (Eterna round: R96, puzzle: Same State NG 2) | 10.2 nM | 78.9 nM | 89.1 nM | – | – | – |
| UUAAGCCACGAGCAGGAUAUGUAUUAAAAUACAUGAGGAUCACCCAUGUGCAGGUGUAACACCUGACAGAAGGGCCAAUCGCGGC [Soondi - 1] (puzzle: Same State 2) | – | – | – | 256 nM | 366 nM | 461 nM |
| AGCUAGUACCGAGGAUAUACAUACAUGAGGAUCACCCAUGUAUACAUGAAAUAUUGAGACUACAUGUAGAAGGCGGUACUAGCA [Mat - Same State NG 2 - JL mod - D44] (Eterna round: R96, puzzle: Same State NG 2) | 13.6 nM | 28.4 nM | 46.4 nM | – | – | – |
| AUUAAUUAAUUAAUACAUGAGGAUCACCCAUGUAAUAAGAUCAAGGAUAUCAGCUCGAAUAGAGCUGAGAAGGUGAUCACAUGU [SSNG3/17-B1] (Eterna round: R96, puzzle: Same State NG 3) | – | 337 nM | – | – | – | – |
| AAGAGAGGAAGCGAGGAUAUCGUGGGAGGGACAUGAGGAUCACCCAUGUAGGAUGUAGAGAGGAACGAGAAGGCGCAGGAAAGAA [JR_SS2_Sub073] (puzzle: Same State 2) | – | – | – | 49 nM | 67.7 nM | 79.2 nM |
| GUGGCGGGUUGAGGAUAUUGGUUGCAUAUGUUUAACAUGAGGAUCACCCAUGUGGGUUGCGGUUUCGAGAAGGUAGGUUGCUGG [salish99_SSNG2_r04_044] (Eterna round: R96, puzzle: Same State NG 2) | 155 nM | 95.3 nM | 140 nM | – | – | – |
| GGAGCCGGCCUAGGAUAUUUCAUAGAAAAACAUGAGGAUCACCCAUGUAGGCCAGAAGGCCUUGGGAAGAAGGAGGUCGGCUCC [Loop Effect - G25] (Eterna round: R96, puzzle: Same State NG 2) | 9.45 nM | 19.5 nM | 31.2 nM | – | – | – |
| GCUCGUAUCACAACCAACAUGAGGAUCACCCAUGUAUGUUGGUAGGAUAUCUAUAUUAAGGAUAUAGAGAAGGGCCGAACGAGC [SameState NG3 #12] (Eterna round: R96, puzzle: Same State NG 3) | 53.7 nM | 59.7 nM | 82.3 nM | – | – | – |
| GUGGUCAGACAUGAGGAUCACCCAUGUGGAAUAAAUAACAGACAGGAUAUGUAAUAUAGGAUAUAACAGAAGGGUCGAUUGGUG (Eterna round: R96, puzzle: Same State NG 3) | – | 64.4 nM | – | – | – | – |
| GGACGUCAUCUCAAUAAUUAAACAUGAGGAUCACCCAUGUCACAGGAUAUGGAUCCUAAUUGGAUCCAGAAGGGUGUGACGUCC [Fiskers NG3ss - 40] (Eterna round: R96, puzzle: Same State NG 3) | 54.3 nM | 56 nM | 66.1 nM | – | – | – |
| GCUCGGCUGAUGGCCUACAUGAGGAUCACCCAUGUGAGUGGGCAGGAUAUCUAGAUUAAGGAUGUAGAGAAGGGCCUGCCGAGC [SameState NG3 #37] (Eterna round: R96, puzzle: Same State NG 3) | 708 nM | 131 nM | 496 nM | – | – | – |
| AUUCGAUAGAUAGGAUAUCACCAUACAUGAGGAUCACCCAUGUUGACCACGCUGGUUAUUCAUACUGAGAAGGAUCUUGAUGAC [JR_SSNG2_Sub005] (Eterna round: R96, puzzle: Same State NG 2) | 27.8 nM | 31.1 nM | 52.2 nM | – | – | – |
| GCUAGAAUUAAAGCCAACAUGAGGAUCACCCAUGUAUGUUGGUAGGAUAUCGUUUGCAAAGCAAACGAGAAGGGCUAAUCUAGC [Mat - Same State NG 3 - JL Mod - D64] (Eterna round: R96, puzzle: Same State NG 3) | 87 nM | 48.2 nM | 80.2 nM | – | – | – |
| GGACGUCGAUCUCCUACUUAAACAUGAGGAUCACCCAUGUCACAGGAUAUGAGUCCGAUUAGGACUCAGAAGGGUGCGACGUCC [Fiskers NG3ss - 51] (Eterna round: R96, puzzle: Same State NG 3) | 14 nM | 12.3 nM | 18.6 nM | – | – | – |
| GCUGCAAGGGCAGGAUAUGGGUUCAGAGCGGAAGUGCGCUUUGAUACAUGAGGAUCACCCAUGUCCCAGAAGGGCCCAUGCGGC [Arredibi] (Eterna round: R96, puzzle: Same State NG 2) | 19.1 nM | 78.4 nM | 113 nM | – | – | – |

| Sequence | apparent KD of MS2 coat protein (input ligand: FMN 200 uM) | apparent KD of MS2 coat protein [1] | apparent KD of MS2 coat protein (input ligand: none) | apparent KD of MS2 coat protein [2] | apparent KD of MS2 coat protein [3] | apparent KD of MS2 coat protein [4] |
| --- | --- | --- | --- | --- | --- | --- |
| AAAACAUGAGGAUCACCCAUGUGUAAAAGAUACCGGAUGGUGCAGGAUAUAUCCCAUUAAAGUGGAUAGAAGGGUGGCAUCAAG [Eternabot solution 46] (Eterna round: R96, puzzle: Same State NG 3) | 20.8 nM | 32.5 nM | 32.1 nM | – | – | – |
| AGGCUCAGACGAGGAUAUAUGUAAUAACAUGAGGAUCACCCAUGUGUCGAGCUUCGGCUCGACACAUAGAAGGCGUCUGAGCCA [SSNG2/2-A1] (Eterna round: R96, puzzle: Same State NG 2) | 8.75 nM | 17.4 nM | 25.7 nM | – | – | – |
| UGUUGUAUUACAGGAUAUCUAUAAUUUUUAUUUAGAGAAGGGUAUUCACAUGAGGAUCACCCAUGUAUAUACGAGGAAGUUGUG [JMF's solution 10] (Eterna round: R96, puzzle: Same State NG 1) | – | 31.1 nM | – | – | – | – |
| GUUAGGAAUCUAGCACACAUGAGGAUCACCCAUGUUAGUGGGAAGGAUAUGGUACAGAAACUGUACCAGAAGGUCUUAUUGUUU [Omei SS(NG) 3 AV14] (Eterna round: R96, puzzle: Same State NG 3) | 93.8 nM | 67.6 nM | 142 nM | – | – | – |
| GUUAAACAUGAGGAUCACCCAUGUAAUAUAAUGGGAGGAUAUCUGAAUUAAUUAAAUUAAGGAGAAGGCCUAAUGG [Mat - Same State 1 - Mod of Eli - D51] (puzzle: Same State 1) | – | – | – | 83.3 nM | 481 nM | 608 nM |
| UGUUGUAUUACAGGAUAUCUAUUAUUUUUAAUUAGAGAAGGGUAUUCACAUGAGGAUCACCCAUGUAUAUACGAGGAAGUUGUG [JMF's solution 25] (Eterna round: R96, puzzle: Same State NG 1) | – | 27.5 nM | – | – | – | – |
| AGUCCAGCCUGAGCUGGACAAAAGCAUGUACAUGAGGAUCACCCAUGUCAUGUACAGGCUUUUUGCUCGUCUUAAUA [Zipper 49 - 7] (puzzle: Sensor for hsa-mir-208a) | – | – | – | 433 nM | 16.8 nM | 583 nM |
| AUAAAACAUGAGGAUCACCCAUGUCAACAAAGUCGAGGAUAUGGGCAAAUAAAAUAAGAACCAGAAGGUGAAUAAU [salish99_ss1_r3_032] (puzzle: Same State 1) | – | – | – | 131 nM | 31.5 nM | 146 nM |
| CGAUGAAACUAAGGAAGAAGAGUUGAAGUACAUGAGGAUCACCCAUGUCAGAGCUUUUUGCUCGUCAUGAACAGGAA [JR_SHM208a_Sub005] (puzzle: Sensor for hsa-mir-208a) | – | – | – | 51.9 nM | 32.2 nM | 52.8 nM |
| GUAGCAUGCAGGCAGGAUAUUCAUAUUAAAACAUGAGGAUCACCCAUGUAGGCCGAAAGGCCUUGGGAGAAGGGCCACAUGCUAC [Xeonanis - 18] (puzzle: Same State 2) | – | – | – | 34.3 nM | 453 nM | 1020 nM |
| UGGCUCAGACGAGGAUAUAUGUGGUCACAUGAGGAUCACCCAUGUCUCGAGCUUCGGCUCGAGGCAUAGAAGGUGUCUGAGCCA [SSNG2/5-C2] (Eterna round: R96, puzzle: Same State NG 2) | 227 nM | 16 nM | 33.9 nM | – | – | – |
| GGAGCCGGCCUAGGAUAUUUCAUAAAGAAACAUGAGGAUCACCCAUGUAGGCCAGAAGGCCUUGGGAAGAAGGAGGUCGGCUCC [Loop Effect - G27] (Eterna round: R96, puzzle: Same State NG 2) | 12.4 nM | 29 nM | 28.7 nM | – | – | – |
| AGUCCAGCCAGAGCUGGACAAAAGCAUGUACAUGAGGAUCACCCAUGUUCAUGUACAAGCUUUUUGCAAGUCAAAAU [Mat - hsa-mir-208a - Mod of JL - 83] (puzzle: Sensor for hsa-mir-208a) | – | – | – | 614 nM | 16.8 nM | 1110 nM |
| UGUUGUAUUACAGGAUAUCUAGUAUUUUCAUUUAGAGAAGGGUAUUCACAUGAGGAUCACCCAUGUAUAUACGAGGAAGUUGUG [JMF's solution 45] (Eterna round: R96, puzzle: Same State NG 1) | – | 34.7 nM | – | – | – | – |
| GCGAAGAGGUAAGGAUAUUCAUGGCGGAGACAUGAGGAUCACCCAUGUAGGAGACGAAAUCAAAGGGAGAAGGUACCAGGACGC [AK SSNG2-V2-15] (Eterna round: R96, puzzle: Same State NG 2) | 82.2 nM | 159 nM | 160 nM | – | – | – |
